Experiments:
[1] = molecular target: the molecule itself; experiment: cryo-EM structure; purified Redβ177 incubated in turn with two complementary 27mer oligonucleotides (molar ratio 7.7:1:1) in 20 mM KH2PO4 pH 6.0, 5 mM MgCl2, room temperature, then dialysed overnight at 4 °C; helical reconstruction of the 1-start left-handed helix, 3.3 Å; a 2-start assembly was seen only in 2D classes
[2] = molecular target: T1, Redβ177 (Escherichia coli bacteriophage lambda, UniProt P03698 1-177); experiment: cryo-EM structure (helical reconstruction, 3.3 Å); 5 mM MgCl2; Redβ177:Oligo 1:Oligo 2 7.7:1:1; 4 bp per monomer; base identity averaged, arbitrary sequence modelled; 20 mM KH2PO4 pH 6.0, 5 mM MgCl2; 30 min at room temperature with each oligo, then dialysis overnight at 4 °C; settings: protein: recombinant; tags: C-terminal His6; blunt
T1 sequence: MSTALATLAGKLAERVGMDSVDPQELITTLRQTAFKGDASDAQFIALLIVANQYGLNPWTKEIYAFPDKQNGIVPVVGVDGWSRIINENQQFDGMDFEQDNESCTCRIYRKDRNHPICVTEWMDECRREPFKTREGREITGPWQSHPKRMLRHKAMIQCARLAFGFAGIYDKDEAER

B1: Redβ177-His6 (N-terminal residues 1-177 of the Redβ annealase of bacteriophage λ) (domain or fragment, bacteriophage lambda (phage λ), UniProt P03698 1-177, looked up)
chain: MSTALATLAGKLAERVGMDSVDPQELITTLRQTAFKGDASDAQFIALLIVANQYGLNPWTKEIYAFPDKQNGIVPVVGVDGWSRIINENQQFDGMDFEQDNESCTCRIYRKDRNHPICVTEWMDECRREPFKTREGREITGPWQSHPKRMLRHKAMIQCARLAFGFAGIYDKDEAER
notes: Redβ (Beta) annealase, product of the bet gene of bacteriophage lambda, UniProtKB P03698, N-terminal residues 1-177 (C-terminally truncated); The molecule forms a helical filament of no fixed number of subunits; Residues 3-169 were modelled, except 133-138; also called Redβ177-6xHis; Redβ N-terminal domain; not shown: His6, C-terminal, kept
Question: Does B1 bind [1]?
Answer: binds

B2: Oligo 1 + Oligo 2 annealing intermediate (27mer) (dsDNA)
DNA 1: TGCAGCAGCTTTACCATCTGCCGCTGG
DNA 2: CCAGCGGCAGATGGTAAAGCTGCTGCA
Question: Does B2 bind [2]?
Answer: binds

Reference: article PMC9512822, “Redβ177 annealase structure reveals details of oligomerization and λ Red-mediated homologous DNA recombination” (Nature Communications, 2022)
